US12600782 (BIOTHEUS, dated 2026)
Where two headings read alike, the source gives them in different places.

B1: human PD-L2 protein (purchased from AcroBiosystems) (ligand, UniProt Q9BQ51 20-219, looked up)
chain: LFTVTVPKELYIIEHGSNVTLECNFDTGSHVNLGAITASLQKVENDTSPHRERATLLEEQLPLGKASFHIPQVQVRDEGQYQCIIIYGVAWDYKYLTLKVKASYRKINTHILKVPETDEVELTCQATGYPLAEVSWPNVSVPANTSHSRTPEGLYQVTSVLRLKPPPGRNFSCVFWNTHVRELTLASIDLQSQMEPRTHP
modifications: biotinylated in the blocking assays
notes: Bought soluble protein; also called PD-L2 antigen; biotinylated human PD-L2 protein

Assays:
[1] = target: human PD-L1 protein (purchased from AcroBiosystems) (human) (UniProt Q9NZQ7); assay: BLI (ForteBio), antibody on AHQ sensor, 100 nM PD-L1 antigen, 1:1 model
[2] = target: human PD-L1 protein (purchased from AcroBiosystems) (human) (UniProt Q9NZQ7); assay: as above; remark: listed apart in the source
[3] = target: human PD-L1 on CHO cells (CHO-hPD-L1 cells) (human) (UniProt Q9NZQ7); assay: flow cytometry on CHO-hPD-L1 cells, PE anti-human IgG-Fc, MFI; table under the plot, unit from the concentration axis
[4] = target: human PD-L1 protein (purchased from AcroBiosystems) (human) (UniProt Q9NZQ7); assay: flow cytometry blocking assay: antibody pre-incubated with biotinylated human PD-L1 protein (1 ug/ml), binding of PD-L1 to CHO-hPD-1 cells read as MFI; falling curve, the table under the plot calls the half-maximal concentration EC50; unit from the concentration axis
[5] = target: T1, human PD-1 on CHO cells (CHO-hPD-1 cells) (human, UniProt Q15116 25-288); assay: flow cytometry: biotinylated human PD-L2 protein (1 ug/ml) on CHO-hPD-1 cells, no antibody
T1 construct: whole, on cells
Experimental: (§1) CHO cells overexpressing human PD-1 (CHO-hPD-1 cells) were generated by transfection of the pCHO1.0 vector (purchased from Invitrogen™) cloning human PD-1 cDNA (purchased from Sino Biological). The expanded CHO-hPD-1 cells were adjusted to a cell density of 2×10⁶ cells/ml, and were added to 96-well flow plate at 100 μl/well, and centrifuged for later use. The purified mutant sample was diluted with PBS and diluted 3 times from […] for 12 points. […] The co-incubation sample was added to the above-mentioned 96-well flow plate with cells 100 μl/well, incubated at 4° C. for 30 min, and washed twice with PBS. APC goat anti-mouse IgG (minimum×reactive) antibody diluted 100 times with PBS (purchased from Biolegend®) was added at 100 μl/well, incubated at 4° C. for 30 min, and washed twice with PBS. PBS was added at 100 μl/well to resuspend cells, and detection was performed on a CytoFlex (Bechman) flow cytometer and the corresponding MFI was calculated.

[6] = target: B1; assay: BLI (ForteBio), antibody on AHQ sensor, 100 nM PD-L2 antigen, 1:1 model
Experimental: (§2) ForteBio affinity determination was carried out according to existing methods (Estep, P et al., High throughput solution-based measurement of antibody-antigen affinity and epitope binning. MAbs, 2013.5(2): p. 270-8). In short, the sensor was equilibrated for 30 min under the line of the analysis buffer, and then the baseline was established after online detection for 60 s. The purified antibody obtained as described above was loaded onto the AhQ sensor online. […] Kinetic analysis was performed using a 1:1 binding model.
(§3) The experimental method was the same as that in Example 1.5.

[7] = target: B1; assay: as above; remark: listed apart in the source
Experimental: as §2

[8] = target: T2, human PD-L2 on CHO cells (CHO-hPD-L2 cells) (human, UniProt Q9BQ51 20-273); assay: flow cytometry on CHO-hPD-L2 cells, PE anti-human IgG-Fc, median fluorescence intensity (MFI)
T2 construct: whole, on cells; also called CHO-K1-PD-L1/PD-L2
T2 sequence (looked up): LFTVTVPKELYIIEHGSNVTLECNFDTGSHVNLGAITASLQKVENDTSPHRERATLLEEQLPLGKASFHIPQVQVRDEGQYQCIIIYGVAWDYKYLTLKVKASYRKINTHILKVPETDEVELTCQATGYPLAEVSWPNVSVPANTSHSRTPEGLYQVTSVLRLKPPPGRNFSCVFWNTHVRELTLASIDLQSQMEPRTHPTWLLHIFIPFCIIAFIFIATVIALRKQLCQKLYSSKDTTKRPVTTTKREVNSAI
Experimental: (§4) The expanded CHO-hPD-L2 cells were adjusted to a cell density of 2×10⁶ cells/ml, and were added to 96-well flow plate at 100 μl/well, and centrifuged for later use. […] The diluted samples were added to the 96-well flow plate with cells at 100 μl/well, incubated at 4° C. for 30 min, and washed twice with PBS. Goat F(ab')2 anti-human IgG-Fc (PE) (purchased from Abcam) diluted 100 times with PBS was added at 100 μl/well, incubated at 4° C. for 30 min, and washed twice with PBS. PBS was added at 100 μl/well to resuspend cells, and detection was performed on a CytoFlex (Bechman) flow cytometer and the corresponding MFI was calculated.

[9] = target: T2, human PD-L2 on CHO cells (CHO-hPD-L2 …); assay: as above; remark: listed apart in the source
Experimental: as §4

[10] = target: B1; assay: flow cytometry blocking assay: antibody pre-incubated with biotinylated human PD-L2 protein (1 ug/ml), binding of PD-L2 to CHO-hPD-1 cells read as MFI
Experimental: as §1

[11] = target: B1; assay: flow cytometry blocking assay: antibody pre-incubated with biotinylated human PD-L2 protein (1 ug/ml), binding of PD-L2 to CHO-hPD-1 cells read as MFI (APC)
Experimental: as §1

[12] = target: T2, human PD-L2 on CHO cells (CHO-hPD-L2 …); assay: flow cytometry on CHO-hPD-L2 cells, PE anti-human IgG-Fc, MFI; table under the plot, unit from the concentration axis
[13] = target: B1; assay: flow cytometry blocking assay: antibody pre-incubated with biotinylated human PD-L2 protein (1 ug/ml), binding of PD-L2 to CHO-hPD-1 cells read as MFI (APC); falling curve, the table under the plot calls the half-maximal concentration EC50; unit from the concentration axis
Experimental: (§5) The expanded CHO-hPD-1 cells were adjusted to a cell density of 2 ×10^6 cells/ml, and were added to 96-well flow plate at 100 μl/well, and centrifuged for later use. The purified mutant sample was diluted with PBS and diluted 3 times from […] for 12 points.
(§6) 28 purified sample at 4° C. for 30 min. The co-incubation sample was added to the above-mentioned 96-well flow plate with cells at 100 μl/well, incubated at 4° C. for 30 min, and washed twice with PBS. APC goat anti-mouse IgG (minimum×reactivity) antibody diluted 100 times with PBS (purchased from Biolegend®) was added at 100 μl/well, incubated at 4° C. for 30 min, and washed twice with PBS. PBS was added at 100 μl/well to resuspend cells, and detection was performed on a CytoFlex (Bechman) flow cytometer and the corresponding MFI was calculated.

[14] = target: T3, human PD-L1 protein (purchased from AcroBiosystems) (human, UniProt Q9NZQ7 19-238, biotinylated in the blocking assay); assay: BLI (ForteBio), antibody on AHQ sensor, 100 nM PD-L1 antigen, 1:1 model
T3 construct: Bought soluble protein; also called PD-L1 antigen; biotinylated human PD-L1 protein
Experimental: as §2

[15] = target: T4, human PD-L1 on CHO cells (CHO-hPD-L1 cells) (human, UniProt Q9NZQ7 19-290); assay: flow cytometry on CHO-hPD-L1 cells, PE anti-human IgG-Fc, median fluorescence intensity (MFI)
T4 construct: whole, on cells; also called CHO-K1-PD-L1/PD-L2

[16] = target: T4, human PD-L1 on CHO cells (CHO-hPD-L1 …); assay: flow cytometry on CHO-hPD-L1 cells, PE anti-human IgG-Fc, MFI; table under the plot, unit from the concentration axis
[17] = target: T3, human PD-L1 protein (purchased from …); assay: flow cytometry blocking assay: antibody pre-incubated with biotinylated human PD-L1 protein (1 ug/ml), binding of PD-L1 to CHO-hPD-1 cells read as MFI; falling curve, the table under the plot calls the half-maximal concentration EC50; unit from the concentration axis
Experimental: as §5, §6

[18] = target: T3, human PD-L1 protein (purchased from …); assay: BLI (ForteBio), antibody on AHQ sensor, 100 nM PD-L1 antigen, 1:1 model; remark: listed apart in the source
Experimental: as §2, §3

human PD-L1 protein (purchased from AcroBiosystems) (human), sequence (Q9NZQ7 19-238 limits assumed): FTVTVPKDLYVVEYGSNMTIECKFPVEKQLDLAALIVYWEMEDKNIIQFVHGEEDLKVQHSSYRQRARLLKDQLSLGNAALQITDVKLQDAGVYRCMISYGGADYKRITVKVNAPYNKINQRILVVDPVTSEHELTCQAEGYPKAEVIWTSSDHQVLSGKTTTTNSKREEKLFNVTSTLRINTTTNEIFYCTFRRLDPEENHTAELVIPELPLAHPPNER
T3 sequence (Q9NZQ7 19-238 limits assumed): as above
T4 sequence (Q9NZQ7 19-290): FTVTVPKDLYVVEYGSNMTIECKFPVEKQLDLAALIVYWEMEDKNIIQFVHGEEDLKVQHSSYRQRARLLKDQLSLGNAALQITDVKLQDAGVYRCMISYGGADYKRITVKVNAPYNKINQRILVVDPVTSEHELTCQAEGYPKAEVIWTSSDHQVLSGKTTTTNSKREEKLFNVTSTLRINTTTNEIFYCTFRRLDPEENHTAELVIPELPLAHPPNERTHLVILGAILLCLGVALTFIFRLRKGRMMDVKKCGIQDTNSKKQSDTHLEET
T1 sequence (Q15116 25-288): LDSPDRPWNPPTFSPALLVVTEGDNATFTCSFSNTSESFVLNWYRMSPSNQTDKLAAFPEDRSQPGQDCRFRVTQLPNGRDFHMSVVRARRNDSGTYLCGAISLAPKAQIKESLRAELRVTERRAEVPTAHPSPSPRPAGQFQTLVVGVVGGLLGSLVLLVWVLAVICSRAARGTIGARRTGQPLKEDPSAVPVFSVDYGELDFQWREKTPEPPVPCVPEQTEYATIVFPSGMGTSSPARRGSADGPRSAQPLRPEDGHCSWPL
human PD-L1 on CHO cells (CHO-hPD-L1 cells) (human), sequence (Q9NZQ7 19-290): as the sequence (Q9NZQ7 19-290) above

control antibody ATE
Kd [1]: 1.3 nM
Kd [2]: 1.16 nM
EC50 [3]: 4.53 nM
EC50 [4]: 6.31 nM

B1
binding result [5]: binds

B2: D-Na-96 (antibody, V domains shown)
VH: QVQLVESGGGLVQAGASLRLSCAASGRTFSSMTIGWFRQTPGKEREFVAGIGWTSGLTVYADSVKGRFTISRDNAEKTMYLHMNNLKPEDTSVYYCAADSMNRGQFDYWGQGTQVTVSS
notes: Anti-PD-L2 heavy chain antibody: VHH linked to human IgG1 (LALA) Fc; the junction is not described
Kd [6]: 2.5 nM
koff [6]: 0.000655 s⁻¹
kon [6]: 262000 M⁻¹ s⁻¹
Kd [7]: 1.27 nM
koff [7]: 0.0011 s⁻¹
kon [7]: 862000 M⁻¹ s⁻¹
EC50 (read off the curve) [8]: ~50 nM
EC50 (read off the curve) [9]: ~6 nM
IC50 (read off the curve) [10]: ~9 nM
IC50 (read off the curve) [11]: ~2 nM

B3: HZ-D-Na-96-1 (antibody, V domains shown)
VH: EVQLVESGGGLVQPGGSLRLSCAASGRTFSSMTIGWFRQAPGKGLEFVSGIGWTSGLTVYADSVKGRFTISRDNAKNSMYLQMNSLRAEDTAVYYCAADSMNRGQFDYWGQGTLVTVSS
notes: Humanized anti-PD-L2 heavy chain antibody: VHH linked to human IgG1 (LALA) Fc; the junction is not described
Kd [6]: 1.68 nM
koff [6]: 0.000577 s⁻¹
kon [6]: 344000 M⁻¹ s⁻¹
Kd [7]: 1.11 nM
koff [7]: 0.0004 s⁻¹
kon [7]: 360000 M⁻¹ s⁻¹
EC50 (read off the curve) [9]: ~4 nM
EC50 [12]: 1.75 nM
IC50 (read off the curve) [11]: ~2 nM
EC50 [13]: 13.4 nM

B4: K-Yr-13&14-02 (antibody, V domains shown)
VH: QVQLVESGGGLVKAGDSLRLSCAASGHTFIIYAIGWFRQAPGKEREFVATINWSGSMTNYTDSVKGRFTISRDNAKNTVYLQMNSLKPDDTAIYYCAAYVGATISTAHSRYDYWGQGTQVTVSS
notes: Anti-PD-L1 heavy chain antibody: VHH linked to human IgG1 (LALA) Fc; the junction is not described
Kd [14]: 0.96 nM
koff [14]: 0.000561 s⁻¹
kon [14]: 585000 M⁻¹ s⁻¹
EC50 (read off the curve) [15]: ~8 nM

B5: Bi-203-204 (bispecific antibody, human IgG1, kappa, L234A L235A, V domains shown)
V domain 1: QVQLVESGGGLVKPGGSLRLSCAASGHTFIIYAIGWFRQAPGKGLEFVATINWSGSMTNYADSVKGRFTISRDNAKNTVYLQMNSLKPDDTAVYYCAAYVGATISTAHSRYDYWGQGTLVTVSS
V domain 2: EVQLVESGGGLVQPGGSLRLSCAASGRTFSSMTIGWFRQAPGKGLEFVSGIGWTSGLTVYADSVKGRFTISRDNAKNSMYLQMNSLRAEDTAVYYCAADSMNRGQFDYWGQGTLVTVSS
notes: Formula III + IV format
Kd [14]: 1.59 nM
koff [14]: 0.000405 s⁻¹
kon [14]: 254000 M⁻¹ s⁻¹
Kd [7]: 1.14 nM
koff [7]: 0.000424 s⁻¹
kon [7]: 372000 M⁻¹ s⁻¹
EC50 [16]: 3.74 nM
EC50 [12]: 1.25 nM
EC50 [17]: 12.3 nM
EC50 [13]: 8.35 nM

B6: HZ-K-Yr-13&14-02-3 (antibody, V domains shown)
VH: QVQLVESGGGLVKPGGSLRLSCAASGHTFIIYAIGWFRQAPGKGLEFVATINWSGSMTNYADSVKGRFTISRDNAKNTVYLQMNSLKPDDTAVYYCAAYVGATISTAHSRYDYWGQGTLVTVSS
notes: Humanized anti-PD-L1 heavy chain antibody: VHH linked to human IgG1 (LALA) Fc; the junction is not described; also called HZ-K-13&14-02-3
Kd [18]: 0.223 nM
koff [18]: 9.92e-05 s⁻¹
kon [18]: 445000 M⁻¹ s⁻¹
Kd [14]: 1.38 nM
koff [14]: 0.000309 s⁻¹
kon [14]: 224000 M⁻¹ s⁻¹
EC50 (read off the curve) [15]: ~10 nM
EC50 [16]: 2.55 nM
EC50 [17]: 5.17 nM
